The target in experiment [1] is T1, peptide 1 (12 mer from the 2nd extracellular loop of human C5aR) (human, not fully specified).
T1 construct: worked out from 22 12 mers offset by one over 173-205; also called peptide no
T1 peptide: Biotin-SGSGLYRVVREEYFPP
Description: peptide ELISA, biotin peptide on streptavidin plate. The text has this: (§1) A set of 22 overlapping peptides (12 mers), each offset by 1 residue from the next, spanning the second extracellular loop (3rd extracellular domain) of human C5aR was synthesised (Mimotopes, Melbourne). Each peptide was made with a biotin group and 4-amino acid linker (SGSG) at its N-terminus. One peptide synthesised, no. 23, was a 33 mer, representing the full length of the 2nd extracellular loop of hC5aR (residues 173-205 from SEQ ID NO:37), also had biotin-SGSG at the N-terminus.
(§2) The experiment was conducted by binding the peptides to a 384-well streptavidin-coated plate then incubating the antibodies with the peptides and detecting bound antibody with an anti-mouse IgG conjugated to horse radish peroxidase (HRP) as follows. Each peptide was dissolved in 200 μl of 60% DMSO to a concentration of 10 mg/ml. Peptides were further diluted 1:1000 to a working strength of 10 μg/ml with PBS/Tween 20/azide solution (0.1% w/v sodium azide in PBS/0.05% Tween 20).
(§3) A 384 well streptavidin-coated plate (Nunc) was blocked with 20 μl of blocking buffer (1% w/v BSA in PBS) per well. The plate was washed 4 times with PBS/Tween20 buffer (0.1% v/v Tween 20 in PBS). 20 μl of diluted peptide solution was transferred into a well and the plate incubated for 1 hour at room temperature. After washing the plate 4 times (as above) 20 μl antibody (0.5, 1, 1.25, 2.5 or 5 μg/ml) was added to the well and the plate was incubated for 1 hour at 20° C. The plate was washed 4 times as above then 20 μlHRP-conjugated anti-mouse IgG (1:5000 dilution in PBS/Tween 20) was added to each well. After a 1 hour incubation at room temperature the plate was washed 3 times (as above) then twice with PBS to remove traces of Tween. The presence of peroxidase was detected by adding 20 μl of freshly prepared TMB Substrate reagent (BD Opt EIA) to each well and incubating at room temperature for 20 min. Finally the plate was read at 650 nm/450 nm.
In general terms: ELISA stands for enzyme-linked immunosorbent assay.

The target of experiment [2] is T2, peptide 2 (12 mer from the 2nd extracellular loop of human C5aR) (human).
T2 construct: worked out from 22 12 mers offset by one over 173-205; also called peptide no
T2 peptide: Biotin-SGSGYRVVREEYFPPK
The description is as above.
Source text: as §1, §2, §3

Experiment [3] deals with T3, peptide 3 (12 mer from the 2nd extracellular loop of human C5aR) (human).
T3 construct: worked out from 22 12 mers offset by one over 173-205; also called peptide no
T3 peptide: Biotin-SGSGRVVREEYFPPKV
The description is as above.
Source text: as §1, §2, §3

Experiment [4] concerns the target T4, peptide 4 (12 mer from the 2nd extracellular loop of human C5aR) (human).
T4 construct: worked out from 22 12 mers offset by one over 173-205; also called peptide no
T4 peptide: Biotin-SGSGVVREEYFPPKVL
The experiment is described as above.
Source text: as §1, §2, §3

Experiment [5] has as its target T5, peptide 5 (12 mer from the 2nd extracellular loop of human C5aR) (human).
T5 construct: worked out from 22 12 mers offset by one over 173-205; also called peptide no
T5 peptide: Biotin-SGSGVREEYFPPKVLC
The description is as above.
Source text: as §1, §2, §3

The target of experiment [6] is T6, peptide 6 (12 mer from the 2nd extracellular loop of human C5aR) (human).
T6 construct: worked out from 22 12 mers offset by one over 173-205; also called peptide no
T6 peptide: Biotin-SGSGREEYFPPKVLCG
Described as above.
Source text: as §1, §2, §3

Experiment [7] addresses T7, peptide 7 (12 mer from the 2nd extracellular loop of human C5aR) (human).
T7 construct: worked out from 22 12 mers offset by one over 173-205; also called peptide no
T7 peptide: Biotin-SGSGEEYFPPKVLCGV
The description is as above.
Source text: as §1, §2, §3

Experiment [8] deals with T8, peptide PEP1 (residues 9-29 of human C5aR) (human).
T8 construct: Coated directly on a MaxiSorp plate; also called N-terminal 9-29 peptide
T8 peptide: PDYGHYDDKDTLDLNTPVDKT
Kind of experiment: ELISA, PEP1 coated at 10, 2 and 1 µg/ml. As for the experimental part: A 384-well MaxiSorp plate (Nunc) was coated with a peptide corresponding to residues 9-29 of human C5aR (PEP1), at concentrations of 1-15 μg/ml in PBS/0.01% Tween-20 at 37° C. for 1.5 hours, then washed 3 times. The plate was blocked with 20 μl of blocking buffer (1% w/v BSA in PBS) per well for overnight at 4° C. The plate was washed 3 times with PBS/Tween buffer (0.05% v/v Tween-20 in PBS). 20 μl antibody (final concentration 5 μg/ml) was added to each well and the plate was incubated for 2 hours at 37° C. The plate was washed 3 times as above then 20 μl HRP-conjugated anti-human IgG kappa (1:8000 dilution in PBS/Tween 20) or HRP-conjugated anti-mouse IgG (1:7500 dilution) was added to each well. After a 2 hour incubation at room temperature the plate was washed 4 times (as above). The presence of peroxidase was detected by adding 20 μl of freshly prepared TMB Substrate reagent (BD Opt EIA) to each well and incubating at room temperature for 20 min. Finally after stopping the reaction with 20 μl 1M H₂SO₄ per well the plate was read at 450 nm (reference 620 nm) in a plate reader.
However, the anti-C5aR (CD88) mAb S5/1 (AbD Serotec, Cat No. MCA1283) which was raised against the human C5aR N-terminal peptide 1-31 did bind PEP1 at 5 μg/ml as expected.

No end group written: not given here. *: point of attachment. Biotin = O=C1N[C@H]2[C@H](CS[C@H]2CCCCC(=O)*)N1

B1: mouse anti-C5aR monoclonal antibody 7F3 (antibody, V domains shown)
VH: QVQLQQSGPELVKPGASVKISCKASGYAFSNSWMNWVKQRPGKGLEWIGRIYPGDGDTKYNGKFKGKATLTADKSSSTAYMQLSSLTSEDSAVYFCARFLLISTVTAVDYWGQGTTLTVSS
VL: DVVMTQSPLSLPVSLGNQASISCRSSQSLVHSNGNTYLHWYLQKPGQSPKLLIYKVSNRFSGVPDRFSGSGSGTDFSLKISRVEAEDLGVYFCSQSTLVPLTFGAGTKLELK
notes: Mouse monoclonal from hybridoma ECACC 00110609; also called m7F3; mouse 7F3
Turning to B1, the binding result in experiment [1], in experiment [2], in experiment [3], in experiment [4], in experiment [5] and in experiment [6] was “binds” in each case. Besides, the binding result in experiment [7] is given as “binds”.

B2: humanized anti-C5aR antibody hAb-Q (antibody, human IgG4 S228P, kappa)
light: DVVMTQSPLSLPVTLGEPASISCRSSQSLVHSNGNTYLHWYLQKPGQSPQLLIYKVSNRFSGVPDRFSGSGSGTDFTLKISRVEAEDVGVYFCSQSTLVPLTFGQGTKLEIKRTVAAPSVFIFPPSDEQLKSGTASVVCLLNNFYPREAKVQWKVDNALQSGNSQESVTEQDSKDSTYSLSSTLTLSKADYEKHKVYACEVTHQGLSSPVTKSFNRGEC
heavy: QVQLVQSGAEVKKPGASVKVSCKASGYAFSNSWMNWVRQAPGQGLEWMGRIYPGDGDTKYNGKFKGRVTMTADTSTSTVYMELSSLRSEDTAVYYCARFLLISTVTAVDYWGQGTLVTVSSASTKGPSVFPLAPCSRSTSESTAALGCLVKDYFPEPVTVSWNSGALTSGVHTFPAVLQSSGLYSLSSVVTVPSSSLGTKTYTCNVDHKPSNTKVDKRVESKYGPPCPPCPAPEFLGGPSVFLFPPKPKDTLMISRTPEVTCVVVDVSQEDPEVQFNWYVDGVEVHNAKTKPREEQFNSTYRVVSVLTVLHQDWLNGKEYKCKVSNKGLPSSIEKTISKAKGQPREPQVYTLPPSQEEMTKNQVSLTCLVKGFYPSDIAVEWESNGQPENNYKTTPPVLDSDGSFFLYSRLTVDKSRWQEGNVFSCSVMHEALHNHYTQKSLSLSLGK
notes: IgG4 with the Ser228Pro mutation; also called antibody Q; anti-C5aR ab
In the case of B2, the binding result was “no binding (tested: 5 µg/ml)” in experiment [8]; “binds” in experiment [1]; “binds” in experiment [2]; “binds” in experiment [3]; “binds” in experiment [4]; “binds” in experiment [5]. For the same molecule, the binding result in experiment [6] and in experiment [7] was “binds” throughout.

B3: humanized anti-C5aR antibody hAb-J (antibody, human IgG4 S228P, kappa)
light: DVVMTQSPLSLPVTLGEPASISCRSSQSLVHSNGNTYLHWYLQKPGQSPQLLIYKVSNRFSGVPDRFSGSGSGTDFTLKISRVEAEDVGVYFCSQSTLVPLTFGQGTKLEIKTVAAPSVFIFPPSDEQLKSGTASVVCLLNNFYPREAKVQWKVDNALQSGNSQESVTEQDSKDSTYSLSSTLTLSKADYEKHKVYACEVTHQGLSSPVTKSFNRGEC
heavy: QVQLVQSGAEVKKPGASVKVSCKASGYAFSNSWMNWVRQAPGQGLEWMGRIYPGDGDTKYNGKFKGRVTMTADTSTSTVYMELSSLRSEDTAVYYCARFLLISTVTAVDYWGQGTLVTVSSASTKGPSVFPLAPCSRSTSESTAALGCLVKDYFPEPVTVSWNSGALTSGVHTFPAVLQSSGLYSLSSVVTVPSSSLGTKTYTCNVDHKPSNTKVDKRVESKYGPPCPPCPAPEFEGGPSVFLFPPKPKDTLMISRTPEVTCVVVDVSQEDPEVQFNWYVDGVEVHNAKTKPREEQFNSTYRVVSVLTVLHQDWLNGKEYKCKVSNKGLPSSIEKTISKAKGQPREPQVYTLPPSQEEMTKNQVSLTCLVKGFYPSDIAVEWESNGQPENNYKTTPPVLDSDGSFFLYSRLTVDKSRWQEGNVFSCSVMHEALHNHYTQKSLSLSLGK
notes: also called antibody J
On to B3, for which the binding result in experiment [8] is “no binding (tested: 5 µg/ml)”.

The values above are taken from US20110190477A1 (G2 INFLAMMATION, published 2011).
